Assay results: US5316947A, “Synthetic isohirudins with improved stability” (Hoechst Aktiengesellschaft, priority 1991, dated 1994)
Numbering of substitutions follows the chain as printed. Blank lines part the entries; values can stand above or below the molecule they belong to.

Tests used:
thrombin = thrombin (Homo sapiens, UniProt P00734); experiment: Comparative Ki value determination on optimized isohirudins (method of Stone and Hofsteenge, chromogenic substrate D-HHT-Gly-Arg-pNA); type: biochemical; conditions: 25° C., pH 8.3, 0.1 M tris, 0.2 M NaCl, 0.1% Triton X-100; Ki = koff/kon; read-out: Ki(app.)
Experimental: Ki values were determined by the method of Stone and Hofsteenge (Biochemistry 25, pages 4622-4628, 1986): 0.2 ml of a 1.25 mM solution of D-HHT-Gly-Arg-pNA was equilibrated at 25° C. with 1.7 ml of 0.1 M tris, 0.2 M NaCl and 0.1% (v/v) Triton X-100 pH 8.3 and 0.1 ml of the isohirudin to be tested in 145 mM NaCl. Binding was started by adding 0.05 ml of thrombin solution. The absorption at 405 nm was recorded for a period of 10-20 min.
The reaction follows the equation:
[P]=vs *t+(vo -v5)(1-e^-k*t)/k+d,
[P]=product concentration (nitroaniline) […]
vs =reaction rate in the equilibrium state
The rate constant k was determined by non-linear regression. Extrapolation of k at various inhibitor concentrations to [1]=0 according to […]
yields the rate constants kon and koff and thus Ki =koff /kon.

[1] = 20-hour stability of [Ala1,Thr2] desulfatohirudin analogs at pH 7 and 60° C. (RP HPLC and anion exchange chromatography); type: physicochemical; conditions: stress conditions: 20 h, 0.5 mg/ml in 20 mM NaP, 300 mM NaCl
Experimental: The compound to be tested was dissolved in 0.5 mg/ml in 20 mM NaP, pH 7, 300 mM NaCl and incubated at 60° C. for 20 h. Samples were taken at times t=0 and t=20 h and analyzed by RP HPLC (Nucleosil®) and anionic exchange chromatography (Mono Q®). The content of newly formed byproducts was calculated.

[2] = Time course of byproduct formation of desulfatohirudin analogs at pH 6.5 and pH 4, 60° C. (FIG. 4 and FIG. 3); type: physicochemical; conditions: 1 mg/ml in water, pH 4 (FIG. 3) and pH 6.5 (FIG. 4), up to 96 h
Experimental: The purified isohirudins, as lyophilisate, were dissolved at 1 mg/ml in water and adjusted to pH 6.5 with 1 M […]. After sterilization by filtration, […]. Samples were taken at times t=0, 5, 24, 48, 72 and 96 h and analyzed by RP HPLC (Nucleosil®) and ion exchange chromatography (Mono®) for the content of byproducts therein. The purity at time t=x is shown relative to the purity at t=0, with in each case the less favorable value from the two analysis systems being used as bases (FIG. 4).
The purified isohirudins, as lyophilisate, were dissolved at 1 mg/ml in water and adjusted to pH 4 with 1 M acetic acid. Incubation and analyses were carried out as in Example 10 (FIG. 3).

Molecule: [Ala^1,Thr^2,Glu^33,Glu^53 ] desulfatohirudin
Ki (thrombin): 0.37 nM | Stability (byproduct formation over time) [2]: simple exchange of the aspartic acid does not have the optimal effect

B1: [Ala^1 Thr^2,Glu^33,Ala^54 ] desulfatohirudin (protein)
chain: ATYTDCTESGQNLCLCEGSNVCGQGNKCILGSEGEKNQCVTGEGTPKPQSHNDADFEEIPEEYLQ
modifications: ends and bridges not checked
Ki (thrombin): 0.35 nM

B2: [Ala^1,Thr^2,Glu^33 ] desulfatohirudin (protein)
chain: B1 chain with A54G
modifications: ends and bridges not checked
Ki (thrombin): 0.16 nM | % newly formed byproducts [1]: 15.2%

B4: [Ala^1,Thr^2,Glu^53 ] desulfatohirudin (protein)
chain: B1 chain with E33D, D53E, A54G
modifications: ends and bridges not checked
Ki (thrombin): 0.38 nM

B7: [Ala^1,Thr^2,Gln^52,Glu^53,Glu^55 ] desulfatohirudin (protein)
chain: B1 chain with E33D, N52Q, D53E, A54G, D55E
modifications: ends and bridges not checked
Ki (thrombin): 0.19 nM | % newly formed byproducts [1]: 14.6%

B8: [Ala^1,Thr^2,Glu^33,Gln^52,Glu^53,Glu^55 ]-desulfatohirudin (protein)
chain: B1 chain with N52Q, D53E, A54G, D55E
modifications: ends and bridges not checked
Ki (thrombin): 0.3 nM | Stability (byproduct formation over time) [2]: superior stability | % newly formed byproducts [1]: 3.2%

Continued, in another order:

Ki (thrombin): 0.2 nM
Molecule: [Ala^1,Thr^2 ] desulfatohirudin [reference compound]
% newly formed byproducts [1]: 23.0%

Ki (thrombin): 0.61 nM
Molecule: [Ile^1,Thr^2 ] desulfatohirudin [reference compound]

Ki (thrombin): 0.14 nM
Molecule: [Leu^1,Thr^2 ] desulfatohirudin [reference compound]

Ki (thrombin): 0.22 nM
B3: [Ala^1,Thr^2,Gln^52,Glu^53,Ala^54 ] desulfatohirudin (protein)
chain: B1 chain with E33D, N52Q, D53E
modifications: ends and bridges not checked

Ki (thrombin): 0.27 nM
B5: [Ala^1,Thr^2,Ala^54 ] desulfatohirudin (protein)
chain: B1 chain with E33D
modifications: ends and bridges not checked

Ki (thrombin): 0.31 nM
B6: [Ala^1,Thr^2,Glu^33,Gln^52,Glu^53,Ala^54 ]-desulfatohirudin (protein)
chain: B1 chain with N52Q, D53E
modifications: ends and bridges not checked
Stability (byproduct formation over time) [2]: superior stability
